Like-named read-outs stand apart in the source and are kept apart here.
B1: b4Gal-T1-M340H-Y285L: double mutant human beta 1,4-galactosyltransferase I, Tyr285Leu and Met340His, transfers GalNAc or modified galactose with magnesium (protein, UniProt P15291 1-398, looked up, variant M340H Y285L)
chain: MRLREPLLSGSAAMPGASLQRACRLLVAVCALHLGVTLVYYLAGRDLSRLPQLVGVSTPLQGGSNSAAAIGQSSGELRTGGARPPPPLGASSQPRPGGDSSPVVDSGPGPASNLTSVPVPHTTALSLPACPEESPLLVGPMLIEFNMPVDLELVAKQNPNVKMGGRYAPRDCVSPHKVAIIIPFRNRQEHLKYWLYYLHPVLQRQQLDYGIYVINQAGDTIFNRAKLLNVGFQEALKDYDYTCFVFSDVDLIPMNDHNAYRCFSQPRHISVAMDKFGFSLPYVQLFGGVSALSKQQFLTINGFPNNYWGWGGEDDDIFNRLVFRGMSISRPNAVVGRCRHIRHSRDKKNEPNPQRFDRIAHTKETMLSDGLNSLTYQVLDVQRYPLYTQITVDIGTPS
B2: b4Gal-T1-M340H: single mutant human beta4Gal-T1, Met340 to His, from which the double mutant was constructed (protein, UniProt P15291 1-398, looked up, variant M340H)
chain: MRLREPLLSGSAAMPGASLQRACRLLVAVCALHLGVTLVYYLAGRDLSRLPQLVGVSTPLQGGSNSAAAIGQSSGELRTGGARPPPPLGASSQPRPGGDSSPVVDSGPGPASNLTSVPVPHTTALSLPACPEESPLLVGPMLIEFNMPVDLELVAKQNPNVKMGGRYAPRDCVSPHKVAIIIPFRNRQEHLKYWLYYLHPVLQRQQLDYGIYVINQAGDTIFNRAKLLNVGFQEALKDYDYTCFVFSDVDLIPMNDHNAYRCFSQPRHISVAMDKFGFSLPYVQYFGGVSALSKQQFLTINGFPNNYWGWGGEDDDIFNRLVFRGMSISRPNAVVGRCRHIRHSRDKKNEPNPQRFDRIAHTKETMLSDGLNSLTYQVLDVQRYPLYTQITVDIGTPS
B3: b4Gal-T1 Y285L: single mutant human beta4Gal-T1, Tyr285 to Leu, from which the double mutant was constructed (protein, UniProt P15291 1-398, looked up, variant Y285L)
chain: MRLREPLLSGSAAMPGASLQRACRLLVAVCALHLGVTLVYYLAGRDLSRLPQLVGVSTPLQGGSNSAAAIGQSSGELRTGGARPPPPLGASSQPRPGGDSSPVVDSGPGPASNLTSVPVPHTTALSLPACPEESPLLVGPMLIEFNMPVDLELVAKQNPNVKMGGRYAPRDCVSPHKVAIIIPFRNRQEHLKYWLYYLHPVLQRQQLDYGIYVINQAGDTIFNRAKLLNVGFQEALKDYDYTCFVFSDVDLIPMNDHNAYRCFSQPRHISVAMDKFGFSLPYVQLFGGVSALSKQQFLTINGFPNNYWGWGGEDDDIFNRLVFRGMSISRPNAVVGRCRMIRHSRDKKNEPNPQRFDRIAHTKETMLSDGLNSLTYQVLDVQRYPLYTQITVDIGTPS
B4: b4Gal-T1Y289L: single mutant beta4Gal-T1, Tyr289 to Leu (bovine numbering), enlarged binding pocket with GalNAc-T activity (protein, UniProt P08037 1-402, looked up, variant Y289L)
chain: MKFREPLLGGSAAMPGASLQRACRLLVAVCALHLGVTLVYYLAGRDLRRLPQLVGVHPPLQGSSHGAAAIGQPSGELRLRGVAPPPPLQNSSKPRSRAPSNLDAYSHPGPGPGPGSNLTSAPVPSTTTRSLTACPEESPLLVGPMLIEFNIPVDLKLVEQQNPKVKLGGRYTPMDCISPHKVAIIIPFRNRQEHLKYWLYYLHPILQRQQLDYGIYVINQAGESMFNRAKLLNVGFKEALKDYDYNCFVFSDVDLIPMNDHNTYRCFSQPRHISVAMDKFGFSLPYVQLFGGVSALSKQQFLSINGFPNNYWGWGGEDDDIYNRLAFRGMSVSRPNAVIGKCRMIRHSRDKKNEPNPQRFDRIAHTKETMLSDGLNSLTYMVLEVQRYPLYTKITVDIGTPS

Legend:
[1] = Gal-T and GalNAc-T enzyme assay, specific activities of the catalytic domain (FIG. 2); assay type: biochemical; settings: in the presence of magnesium; saturating substrates, 500 μM UDP-galactose or UDP-GalNAc, β-benzyl-GlcNAc 25 mM
Method: FIG. 2 is a graph showing specific activities of the catalytic domain of the human beta 4Gal-T1-M340H-Y285L. Reactions were performed under saturating conditions of all substrates. In these reactions the concentrations for the donors UDP-galactose or UDP-GalNAc was 500 μM and the acceptor β-benzyl-GlcNAc was at 25 mM.
The reactions were performed under saturating conditions of all substrates. […] This is in contrast to the wild type, which is not active (not able to transfer sugar) in the presence of magnesium.
Gal-T and GalNAc T enzyme assays are easily performed according to methods described in the art, for example US Published Application 20060084162. Protein concentrations are measured using the Bio-Rad protein assay kit, based on the method of Bradford and further verified on SDS gel. An in vitro assay procedure for the Gal-T1 has been reported previously (Ramakrishnan et al., J. Biol. Chem., 270, […] (2001)). The activities were measured using UDP-Gal or UDP-GalNAc as sugar nucleotide donors, and GlcNAc and Glc as the acceptor sugars. […] The column was washed successfully with 300, 400, and 500 µl of water, and the column flow-through was diluted with Biosafe scintillation fluid; radioactivity was measured with a Beckman counter. […]

[2] = Transfer of GalNAc or 2-keto-galactose to heptasaccharide tetrapeptide, MALDI mass spectra (FIG. 1); assay type: biochemical
Method: Major peaks are annotated with the carbohydrate structure shown in the symbols for monosaccharides, according to the nomenclature adopted by the consortium for functional glycomics, (on the world wide web at functionalglycomics.org/static/consortium/). GlcNAc (squares), mannose (spheres).
The experiments shown in FIG. 1 were performed with the double mutant, b4Gal-T1_M340H_Y285L, which was constructed from the single mutants, b4Gal-T1_M340H and b4Gal-T1_Y285L. The b4Gal-T1-M340H single mutant requires Mg2+ for the transfer reaction, while the b4Gal-T1 Y285L single mutant requires Mn2+ for the transfer reaction. In FIGS. 1, (A), (B) and (C) show the MALDI mass spectra of glycans after the transfer of GalNAc (shown in B) or 2-keto-galactose (shown in C) to the sugar acceptor, heptasaccharide tetrapeptide (A), Arg-[GlcNAcβ1,2-Manα-1,6-(GlcNAcβ1,2-Manα1,3)-Manβ1,4-GlcNAcβ1,4-GlcNAcβ]-Asn-Glu-Gly, by the double mutant enzyme, b4Gal-T1M340H_Y285L. In FIG. 1, major peaks are annotated with the carbohydrate structure shown in the symbols for monosaccharides, according to the nomenclature adopted by the consortium for functional glycomics (publicly available on the world wide web at functional glycomics.org/static/consortium/).

[3] = Ramakrishnan et al. 2002, 2004, cited from earlier work

Row | Molecule | activity (able to transfer sugar) of the catalytic domain [1] | transfer of GalNAc or a modified sugar (2-keto-galactose) to the sugar acceptor ([2]; in the presence of Mg2+, acceptor heptasaccharide tetrapeptide) | metal ion required for the transfer reaction (GalNAc or a modified sugar) [2] | beta 4GalNAc-T activity compared with beta 4Gal-T activity ([3]; listed as beta 4Gal-T1-Y289L) | beta 4GalNAc-T activity compared with beta 4Gal-T activity ([3]; listed as beta4Gal-T1-Y289L)
1 | B1 | is active | transfer of GalNAc or a modified sugar |  |  | 
2 | B2 |  |  | requires Mg2+ |  | 
3 | B3 |  |  | requires Mn2+ |  | 
4 | B4 |  |  | require the presence of Mn2+ | exhibits both beta 4Gal-T and beta 4GalNAc-T activities | as efficient as its beta-1,4-galactosyltransferase (beta 4Gal-T) activity

Reference: US8512991B2, “Beta 1,4-galactosyltransferases with altered donor and acceptor specificities, compositions and methods of use” (The United States of America, as represented by the …, priority 2007, dated 2013)
